Source: PMC7374468, “Characterization of highly active 2-keto-3-deoxy-L-arabinonate and 2-keto-3-deoxy-D-xylonate dehydratases in terms of the biotransformation of hemicellulose sugars to chemicals” (Applied Microbiology and Biotechnology, 2020)

Key:
PpD-KdpD = target: T1, PpD-KdpD (Pseudomonas putida, UniProt Q88J13); assay: coupled assay with PpKGSADH, NADH at […] nm; type: biochemical; details: read-out: I50
T1 construct: gene PP_2836; C-terminal His6 tag (kept), pET vector, E. coli BL21(DE3), HisTrap purified
T1 sequence (Q88J13 1-405): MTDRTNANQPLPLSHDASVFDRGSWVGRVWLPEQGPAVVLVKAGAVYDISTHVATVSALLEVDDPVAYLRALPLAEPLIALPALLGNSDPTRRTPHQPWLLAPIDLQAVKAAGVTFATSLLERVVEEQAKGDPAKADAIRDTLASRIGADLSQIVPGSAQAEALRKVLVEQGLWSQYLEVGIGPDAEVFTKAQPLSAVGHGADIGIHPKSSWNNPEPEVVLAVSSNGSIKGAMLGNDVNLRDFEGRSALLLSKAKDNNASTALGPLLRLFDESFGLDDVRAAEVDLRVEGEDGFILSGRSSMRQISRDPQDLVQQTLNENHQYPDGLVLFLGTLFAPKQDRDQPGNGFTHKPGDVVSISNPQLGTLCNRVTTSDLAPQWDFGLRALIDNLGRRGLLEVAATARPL

purified protein [1] = substrate: O=C(O)C(=O)C[C@@H](O)CO; assay: purified protein; type: biochemical, Azospirillum brasilense; details: 2 mM NAD+ for coupling enzyme, 5 mM MgCl2, 50 mM HEPES pH 7.5, 25 °C
[2] = substrate: O=C(O)C(=O)C[C@H](O)CO; assay: purified protein, by the assay type; design: coupled assay with PpKGSADH, NADH formation at 340 nm, Michaelis-Menten fit, 25 °C, pH 7.5; details: pH 7.5; 25.0 °C
Procedure: To determine dehydratase activity, a coupled-assay with PpKGSADH as auxiliary enzyme was used to link the oxidation of KGSA to α-KG using NAD^+, as was described in a previous study (Beer et al. [2017]). The measurement was performed in a 96-well F-bottom plate (Greiner Bio-One, Germany). 20 μL of a diluted enzyme was added to a 96-well plate. A total of 180 μL of reaction solution containing different concentrations of either D-KDP or L-KDP with 0.5 U/mL PpKGSADH, 2 mM NAD^+, 5 mM MgCl2, 50 mM HEPES pH 7.5 (end concentration) were added subsequently. The measurement was performed with a Multiskan spectrophotometer (Thermo Scientific, Germany) by measuring the development of NADH at 340 nm at 25 °C. Enzyme activity (kcat) was defined as the number of NADH molecules formed per molecule of enzyme per second. Measurements were performed in triplicate.

purified protein [3] = substrate: O=C(O)C(=O)C[C@@H](O)CO; assay: purified protein; type: biochemical, Herbaspirillum seropedicae; details: 2 mM NAD+ for coupling enzyme, 5 mM MgCl2, 50 mM HEPES pH 7.5, 25 °C
purified protein [4] = substrate: O=C(O)C(=O)C[C@@H](O)CO; assay: purified protein; type: biochemical, Variovorax paradoxus; details: 2 mM NAD+ for coupling enzyme, 5 mM MgCl2, 50 mM HEPES pH 7.5, 25 °C

Which IC50 (PpD-KdpD) does the source give for O=C(O)[C@H](O)[C@@H](O)[C@H](O)CO [D-xylonate] here?
The IC50 was 75 mM.

B1: AbL-KdpD (Azospirillum brasilense) (protein)
chain: MTSSSTPRHRGIFPVVPTTFADTGELDLASQKRAVDFMIDAGSDGLCILANFSEQFAITDDERDVLTRTILEHVAGRVPVIVTTSHYSTQVCAARSLRAQQLGAAMVMAMPPYHGATFRVPEAQIFEFYARVSDAIAIPIMVQDAPASGTALSAPFLARMAREIEQVAYFKIETPGAANKLRELIRLGGDAIEGPWDGEEAITLLADLHAGATGAMTGGGFPDGIRPILEAWREGRHDDAYARYQAWLPLINHENRQSGILTAKALMREGGVIASERPRHPMPELHPDTRAELLAIARRLDPLVLRWAH
notes: N-terminal His6 tag (kept), codon-optimised synthetic gene, E. coli BL21(DE3), HisTrap purified, lower purity
Which Km (purified protein [1]) does the source give for B1 here?
The Km was 190 ± 20 µM.

What about the kcat (purified protein [1]) of the same molecule?
Its kcat is 13.6 ± 0.3 s⁻¹.

And the kcat/Km (purified protein [1])?
The kcat/Km was 71300 ± 300 M⁻¹ s⁻¹.

And the Km [2]?
Its Km is 6810 ± 350 µM.

And the kcat [2]?
The kcat was 6.65 ± 0.1 s⁻¹.

What about the kcat/Km [2] of the same molecule?
Its kcat/Km is 980 ± 230 M⁻¹ s⁻¹.

B2: HsL-KdpD (Herbaspirillum seropedicae SmR1) (protein)
chain: MSTPLYRGVFPVAPTIFDANGKLDLEGQKRAIDFMIDAGSNGLCILANFSEQFVLSDEERVQVQNTVLEHVAGRVPVIVTTTHYGSQICAERSRAAQDAGAAMVMVMPPYHGATFRVPEKQIYEFYKHVSDAIDIPIMIQDAPVAGTPLSAPFLARMAKEIEQVSYFKIETAGAASKLRDLIELGGDAVVGPWDGEEAITLIPDLDAGATGAMTGGGYPDGIRKIVDAYFAGDIEKAAELYMQWLPLINYENRQCGLSACKALMLEGGVIKSDMLRHPQPPLHPKVREGLLRVARRLDPLVLSWGR
notes: N-terminal His6 tag (kept), pET vector, E. coli BL21(DE3), HisTrap purified
For B2, which Km (purified protein [3]) is on record?
Its Km is 180 ± 0 µM.

What about the kcat (purified protein [3]) of the same molecule?
Its kcat is 29.6 ± 0.2 s⁻¹.

And the kcat/Km (purified protein [3])?
Its kcat/Km is 163900 ± 200 M⁻¹ s⁻¹.

And the Km [2]?
The Km was 4410 ± 90 µM.

What about the kcat [2] of the same molecule?
The kcat was 11.38 ± 0.06 s⁻¹.

And the kcat/Km [2]?
Its kcat/Km is 2580 ± 140 M⁻¹ s⁻¹.

B3: VpL-KdpD (Variovorax paradoxus EPS) (protein)
chain: MPKPMNHNLSNPRYRGIFPVVPTTFTEQGALDLESQKRCVDFMIDAGSDGLCILANFSEQFVLSDEEREVLTRTMLEHVKGRVPVIVTTTHYSTKVCAERSRRAQDMGAAMLMVMPPYHGATFRVPEPQIFEFYAGLSDAVSIPIMIQDAPASGTVLSAPFLARMAKEIEHVAYFKIETANAAAKLRELIRLGGDAIEGPWDGEEAITLMPDLDAGATGSMTGGGYPDGIRPIIEAHRAGDRDKAFALYQQWLPLINYENRQAGLLACKSLMKEGGVIACEAPRHPLPAMHPATRAGLIETAKRLDPLVLRWGK
notes: as for B2
For B3, which Km (purified protein [4]) is on record?
The Km was 150 ± 10 µM.

And the kcat (purified protein [4])?
Its kcat is 21.8 ± 0.2 s⁻¹.

And the kcat/Km (purified protein [4])?
Its kcat/Km is 146000 ± 200 M⁻¹ s⁻¹.
